Laboratory results from PMC3490968.

Molecular target: papain (UniProt P00784)
Experiment: enzyme inhibition kinetics (fluorogenic substrate, Lineweaver-Burk plot); papain 2 nM, cystatin 40, 60, 80 pM, substrate Z-Phe-Arg-7-amido-4-methylcoumarin 0.3-5 uM; 100 mM sodium phosphate pH 6.3, 10 mM EDTA, 400 mM NaCl, 2 mM dithiothreitol

Sequence of UniProt P00784 (P00784 134-345): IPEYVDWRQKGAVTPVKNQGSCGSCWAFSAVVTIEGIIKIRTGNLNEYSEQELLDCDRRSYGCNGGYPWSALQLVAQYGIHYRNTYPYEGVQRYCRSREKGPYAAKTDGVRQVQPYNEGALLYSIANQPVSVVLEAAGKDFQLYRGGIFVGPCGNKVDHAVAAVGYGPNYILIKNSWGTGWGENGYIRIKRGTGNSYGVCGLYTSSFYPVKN

Ki [nM]	Substance
0.2	recombinant pineapple cystatin (AcCYS), residue 1-135 (natural protein)
0.14	truncated AcCYS (AcCYS_DL), residue 28-135 (domain or fragment)
